Source: US20200392198A1 (UNIVERSITY OF COPENHAGEN, published 2020)
Ends that are not written are not given here. * marks the point of attachment. Palmitoyl = CCCCCCCCCCCCCCCC(=O)*; Lauroyl = CCCCCCCCCCCC(=O)*

T1: human GLP-2 receptor (human, UniProt O95838 1-553)
T1 sequence (looked up): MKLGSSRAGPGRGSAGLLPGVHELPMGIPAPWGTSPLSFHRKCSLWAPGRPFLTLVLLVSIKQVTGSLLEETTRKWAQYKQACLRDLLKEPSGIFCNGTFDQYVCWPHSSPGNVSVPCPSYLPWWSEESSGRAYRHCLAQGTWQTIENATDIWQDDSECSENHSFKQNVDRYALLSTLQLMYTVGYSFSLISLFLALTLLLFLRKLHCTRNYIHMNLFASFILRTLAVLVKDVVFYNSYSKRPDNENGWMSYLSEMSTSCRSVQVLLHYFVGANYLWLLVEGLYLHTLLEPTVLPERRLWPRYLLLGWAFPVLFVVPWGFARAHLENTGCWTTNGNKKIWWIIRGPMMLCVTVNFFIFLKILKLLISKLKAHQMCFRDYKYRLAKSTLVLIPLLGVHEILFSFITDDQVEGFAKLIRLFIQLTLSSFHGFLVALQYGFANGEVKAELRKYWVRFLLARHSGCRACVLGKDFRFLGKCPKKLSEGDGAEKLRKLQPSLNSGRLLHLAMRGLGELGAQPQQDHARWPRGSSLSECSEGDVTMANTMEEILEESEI

T2: human GIP receptor (human, UniProt P48546 22-466)
T2 sequence (looked up): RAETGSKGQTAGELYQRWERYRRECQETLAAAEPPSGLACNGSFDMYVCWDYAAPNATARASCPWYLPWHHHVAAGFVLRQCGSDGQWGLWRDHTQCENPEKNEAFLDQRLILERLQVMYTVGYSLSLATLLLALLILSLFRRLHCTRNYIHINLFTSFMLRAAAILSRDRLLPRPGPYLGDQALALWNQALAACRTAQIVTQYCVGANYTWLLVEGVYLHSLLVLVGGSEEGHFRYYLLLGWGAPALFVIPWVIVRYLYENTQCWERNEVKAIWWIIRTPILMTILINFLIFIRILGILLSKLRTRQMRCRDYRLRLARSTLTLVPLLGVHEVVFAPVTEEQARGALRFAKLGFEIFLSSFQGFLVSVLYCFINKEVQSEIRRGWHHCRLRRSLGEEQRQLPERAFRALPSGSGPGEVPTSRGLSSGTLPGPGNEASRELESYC


How the values were obtained:
human GLP-2 receptor = biological target: T1, human GLP-2 receptor; experiment: cell-based or functional assay
human GIP receptor = biological target: T2, human GIP receptor; experiment: cell-based or functional assay

Row | Binder | EC50 (cAMP) (human GLP-2 receptor) [nM] | Emax (10 µM), % of native GLP-2 (human GLP-2 receptor) [%] | fold (EC50 vs native GLP-2) (human GLP-2 receptor) [fold] | logEC50 (cAMP) (human GLP-2 receptor) | EC50 (cAMP) (human GIP receptor) [nM] | Emax (10 µM), % of native GIP (human GIP receptor) [%] | fold (EC50 vs native GIP) (human GIP receptor) [fold] | logEC50 (cAMP) (human GIP receptor)
1 | HADGTFISDYSTILDNLAARDFINWLIQTKGKKNDWKHNITQ [GIP-GLP-2 co-agonist 34] | 1.2 | 94 | 0.96 | -8.94 | 0.1 | 100 | 1.1 | -10
2 | HADGTFISDYSTILDNLAARDFINWLIQTKGK(Lauroyl)K [GIP-GLP-2 co-agonist 35] | 2.3 | 68 | 1.9 | -8.63 | 0.48 | 99 | 5.4 | -9.32
3 | HADGTFISDYSTILDNLAARDFINWLIQTKGK(Palmitoyl)K [GIP-GLP-2 co-agonist 36] | 20 | 71 | 17 | -7.7 | 0.79 | 100 | 8.9 | -9.1
